Article PMC10065799, “High-throughput profiling of sequence recognition by tyrosine kinases and SH2 domains using bacterial peptide display” (eLife, 2023)

Columns and labels:
Fyn kinase domain = test: LC-MS assay of intact SHP2 protein phosphorylation; assay type: biochemical, human; details: SHP2 10 μM, kinase 1 μM, 1 hr, 37 °C, 2 to 3 measurements
Protocol: (§1) The same protocol used to express and purify SH2 domains, excluding co-expression of BirA and addition of biotin, was applied to the expression and purification of the SHP2 variants.
(§2) To pre-activate the kinases, 1 μM of each purified kinase domain was preincubated at 37 °C for 30 min in the same buffer conditions used in the kinase domain peptide display screen, with 1 mM ATP. The reaction of the kinase with SHP2 was initiated with the addition of 10 μM SHP2, and the mixture was incubated in 37 °C for 1 hr. To terminate the reaction, the mixture was quenched with 200 mM EDTA. The reaction mixture was diluted 3:2 in water and injected onto a BEH C8 column (Waters) on a UPLC-MS system (Xevo QToF, Waters). Reverse-phase liquid chromatography was carried out at 0.3 mL/min with solvents A (H2O, 0.1% (v/v) formic acid) and B (acetonitrile, 0.1% (v/v) formic acid). Proteins were eluted over a gradient of 5–95% B for 8.5 min. The protein peak on the chromatogram was deconvoluted using the MaxEnt1 algorithm from 32,000–65,000 Da with a resolution of 1 Da/channel over 30 iterations. Peaks were chosen according to the theoretical MW of the protein within a range of 5 Da, and integrated for the signal intensity.

FGFR1 kinase domain = test: LC-MS assay of intact SHP2 protein phosphorylation; assay type: biochemical, human; details: SHP2 10 μM, kinase 1 μM, 1 hr, 37 °C, 2 to 3 measurements
Protocol: as §1, §2

B1: SHP2 D61V: human full-length SHP2 (residues 1–526; C459E, D61V) (protein, UniProt Q06124 2-593, looked up, variant C459E D61V)
Tyrosine-protein phosphatase …: TSRRWFHPNITGVEAENLLLTRGVDGSFLARPSKSNPGDFTLSVRRNGAVTHIKIQNTGVYYDLYGGEKFATLAELVQYYMEHHGQLKEKNGDVIELKYPLNCADPTSERWFHGHLSGKEAEKLLTEKGKHGSFLVRESQSHPGDFVLSVRTGDDKGESNDGKSKVTHVMIRCQELKYDVGGGERFDSLTDLVEHYKKNPMVETLGTVLQLKQPLNTTRINAAEIESRVRELSKLAETTDKVKQGFWEEFETLQQQECKLLYSRKEGQRQENKNKNRYKNILPFDHTRVVLHDGDPNEPVSDYINANIIMPEFETKCNNSKPKKSYIATQGCLQNTVNDFWRMVFQENSRVIVMTTKEVERGKSKCVKYWPDEYALKEYGVMRVRNVKESAAHDYTLRELKLSKVGQGNTERTVWQYHFRTWPDHGVPSDPGGVLDFLEEVHHKQESIMDAGPVVVHESAGIGRTGTFIVIDILIDIIREKGVDCDIDVPKTIQMVRSQRSGMVQTEAQYRFIYMAVQHYIETLQRRIEEEQKSKRKGHEYTNIKYSLADQTSGDQSPLPPCTPTPPCAEMREDSARVYENVGLMQQQKSFR
phosphorylation of intact SHP2 by Fyn (Fyn kinase domain): dramatically enhanced phosphorylation
phosphorylation of intact SHP2 by FGFR1 (FGFR1 kinase domain): dramatically enhanced phosphorylation
